Experimental data: the supplement of paper PMC9732359
± gives the uncertainty stated by the source.

Assay: protein stability index of a GFP-peptide fusion (yeast GPS) (PSI 1-4); higher = more stable; sorted into four equal gates, so the index is relative within each strain
Conditions: doa10∆
Procedure, shortened: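 Tiled 17-residue yeast protein peptides were fused downstream of GFP in a plasmid that also expresses Cherry, and the pooled library was carried in yeast. Mid-log cultures in leucine-free medium were sorted into four equal gates by GFP/Cherry fluorescence ratio, and plasmids from each gate were PCR-amplified and Illumina-sequenced, with reads assigned to strains by barcodes. The protein stability index for each peptide was each gate's read frequency times its gate number, summed.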

Q: Which protein stability index does the source give for YYEQFRPDLIKEDHPLE [SIR3] here?
A: The protein stability index was 2.68 ± 0.058.

Same assay, conditions: pdr5∆

Q: For VVDTEETATLIMNELYR [SMC3], which protein stability index is on record?
A: The protein stability index was 3.17 ± 0.11.

Q: Which protein stability index does the source give for VVETITSLLNKVLKSGS [RRP42] here?
A: The protein stability index was 2.37 ± 0.067.

Q: With VVFAVEKLITSKLLVPQ [PRE10] as the sequence, how does the protein stability index read?
A: The protein stability index was 2.81 ± 0.18.

Q: With VVFDSNEAPPKTSLADW [YMR153W/NUP53] as the sequence, how does the protein stability index read?
A: The protein stability index was 3.28 ± 0.051.

Q: With VVIAADTRSTQGPIVAD [PUP1] as the sequence, how does the protein stability index read?
A: Its protein stability index is 3.29 ± 0.24.

Q: Which protein stability index does the source give for VVKGLPDISRAVINIRD [RPO31] here?
A: The protein stability index was 2.23 ± 0.097.

Q: Which protein stability index does the source give for VVNQPTGKIVDVVGTLS [FAS1] here?
A: The protein stability index was 3.49 ± 0.12.

Q: For VVSTTAVIESVVNQPTG [FAS1], which protein stability index is on record?
A: The protein stability index was 1.82 ± 0.087.

Q: Which protein stability index does the source give for VVTRSKEAFEEEIKQSA [SMC1] here?
A: Its protein stability index is 3.07 ± 0.13.

Q: Which protein stability index does the source give for VVYHPSNNELVRTNTLT [RPS8A] here?
A: Its protein stability index is 2.396 ± 0.018.

Q: Which protein stability index does the source give for VYKIYNHVMPLKPVDKL [SIN4] here?
A: Its protein stability index is 1.97 ± 0.072.

Q: For WAVKEGPLAEEPIYGVQ [SNU114], which protein stability index is on record?
A: The protein stability index was 2.53 ± 0.079.

Q: Which protein stability index does the source give for WELYTDFNEIVQYLSGA [POP3] here?
A: Its protein stability index is 2.31 ± 0.12.

Q: With WIKFLLHTLYLRPASAI [SSN8] as the sequence, how does the protein stability index read?
A: The protein stability index was 1.29 ± 0.035.

Q: With WKATYSNEFKCMSVITA [YGL100W/SEH1] as the sequence, how does the protein stability index read?
A: Its protein stability index is 1.64 ± 0.051.

Q: With WKTAEEVSALVRSLPKE [PRP8] as the sequence, how does the protein stability index read?
A: Its protein stability index is 1.36 ± 0.079.

Q: With WLEQFLSCVKNDTISED [NUT1] as the sequence, how does the protein stability index read?
A: Its protein stability index is 1.51 ± 0.04.

Q: For WLKEYEDETLRRIKEAE [YIL149C/MLP2], which protein stability index is on record?
A: Its protein stability index is 3.19 ± 0.12.

Q: With WLWPLCRGELKADIGKP [CDC53] as the sequence, how does the protein stability index read?
A: Its protein stability index is 2.06 ± 0.062.

Q: Which protein stability index does the source give for WPKTRGVAMNPVDHPHG [RPL2A] here?
A: The protein stability index was 2.25 ± 0.057.

Q: For WQQVTALAQQKLLTPQD [GAL11], which protein stability index is on record?
A: Its protein stability index is 2.38 ± 0.068.

Q: For WQSGLKMYDYEEKEESN [RPN11], which protein stability index is on record?
A: Its protein stability index is 3.26 ± 0.13.

Q: With WRFHTPQKYVLHPQLHE [SIN4] as the sequence, how does the protein stability index read?
A: Its protein stability index is 2.11 ± 0.069.

Q: With WSFYNGNVLINDTLPDE [SNU114] as the sequence, how does the protein stability index read?
A: Its protein stability index is 2.23 ± 0.16.

Q: For WSHNGPFETFDHASIRR [CYT1], which protein stability index is on record?
A: Its protein stability index is 3 ± 0.062.

Q: For WYLILSIISSKTSCVVE [RGR1], which protein stability index is on record?
A: The protein stability index was 1.23 ± 0.12.

Q: For YAIKKKDELERVAKSNR [RPS5], which protein stability index is on record?
A: Its protein stability index is 3.35 ± 0.073.

Q: Which protein stability index does the source give for YAKFKRNTMMIQCQIDK [RGR1] here?
A: Its protein stability index is 2.24 ± 0.051.

Q: For YASYFPYLLETYANVLI [RPN7], which protein stability index is on record?
A: The protein stability index was 1.43 ± 0.062.

Q: For YATKRQEAIQQNRRLAF [PRP8], which protein stability index is on record?
A: Its protein stability index is 2.43 ± 0.12.

Q: With YATQVKTDNTVDKFDFY [RPT3] as the sequence, how does the protein stability index read?
A: Its protein stability index is 2.63 ± 0.055.

Q: With YCDPNTQEIRPVNTGVL [RRP40] as the sequence, how does the protein stability index read?
A: The protein stability index was 2.89 ± 0.05.

Q: Which protein stability index does the source give for YDIDEIDHSDESNRQSV [ESC2] here?
A: Its protein stability index is 3.35 ± 0.096.

Q: With YDPKDGLYKMMEERDGA [AAR2] as the sequence, how does the protein stability index read?
A: Its protein stability index is 2.94 ± 0.11.

Q: Which protein stability index does the source give for YDRNSNNNHKDKKLLRR [SWI1] here?
A: The protein stability index was 3.17 ± 0.05.

Q: For YEAYPNTSLPPSILEDS [FAS1], which protein stability index is on record?
A: Its protein stability index is 2.4 ± 0.03.

Q: Which protein stability index does the source give for YEKAQKDLENAQVEMKS [SMC1] here?
A: Its protein stability index is 3.29 ± 0.084.

Q: With YFGENSSISWKNIAQCL [YJL039C/NUP192] as the sequence, how does the protein stability index read?
A: Its protein stability index is 2.57 ± 0.066.

Q: With YFKMFPASKHDKEVVYF [RPC34] as the sequence, how does the protein stability index read?
A: Its protein stability index is 3.2 ± 0.093.

Q: With YFYDLDVLKDGENNINF [BRN1] as the sequence, how does the protein stability index read?
A: The protein stability index was 3.4 ± 0.15.

Q: For YGLIRGLKFASFIFQYY [PRP8], which protein stability index is on record?
A: The protein stability index was 2.52 ± 0.13.

Q: Which protein stability index does the source give for YHLTKAVKLGDLKKFTS [RPN3] here?
A: The protein stability index was 1.8 ± 0.062.

Q: Which protein stability index does the source give for YHRLSNKDMIKNLVKVL [CSN12] here?
A: The protein stability index was 2.97 ± 0.19.

Q: Which protein stability index does the source give for YIFFGPIYYQKLKHMVL [RET1] here?
A: The protein stability index was 1.38 ± 0.1.

Q: For YIHRIGRTGRAANEGTA [PRP28], which protein stability index is on record?
A: The protein stability index was 3.29 ± 0.1.

Q: Which protein stability index does the source give for YIRVNHADKDTFSSSIS [POP8] here?
A: Its protein stability index is 2.61 ± 0.052.

Q: Which protein stability index does the source give for YISAELYAQLRENGLVP [SNU114] here?
A: Its protein stability index is 2.21 ± 0.071.

Q: For YKRQKSSLLYTYDENDD [ESC2], which protein stability index is on record?
A: The protein stability index was 1.42 ± 0.07.

Q: For YKYKMRYVYAHFPINVN [RPL9A], which protein stability index is on record?
A: Its protein stability index is 2.29 ± 0.053.

Q: Which protein stability index does the source give for YLDADVAKLANWFLEVY [YML031W/NDC1] here?
A: Its protein stability index is 2.63 ± 0.099.

Q: With YLEDIIGTANYKPLIEE [SMC4] as the sequence, how does the protein stability index read?
A: The protein stability index was 3.28 ± 0.11.

Q: For YLHDNASKVLLKIFLYL [IRR1], which protein stability index is on record?
A: The protein stability index was 1.64 ± 0.075.

Q: With YLIDHIKVDGAVGNLGN [RPL22B] as the sequence, how does the protein stability index read?
A: Its protein stability index is 2.49 ± 0.14.

Q: For YLKVSEEEIKKFDSRIR [PRP8], which protein stability index is on record?
A: The protein stability index was 3.08 ± 0.083.

Q: With YLVEAPWNDDYPFLLSF [YML103C/NUP188] as the sequence, how does the protein stability index read?
A: The protein stability index was 1.69 ± 0.066.

Q: Which protein stability index does the source give for YMFANLEFSIYHRLSNK [CSN12] here?
A: Its protein stability index is 2.15 ± 0.076.

Q: Which protein stability index does the source give for YMLIEEAASSNKSFIVD [ITC1] here?
A: Its protein stability index is 2.91 ± 0.06.

Q: For YMRLWEINETEFIRCGC [RMP1], which protein stability index is on record?
A: The protein stability index was 3.46 ± 0.14.

Q: Which protein stability index does the source give for YNHNDGGDGRDYKGAKL [RRI1] here?
A: Its protein stability index is 3.2 ± 0.088.

Q: Which protein stability index does the source give for YNIELPLPPRIDPSVTM [RPT1] here?
A: The protein stability index was 2.73 ± 0.088.

Q: With YNLRSLNLINAKLWFYI [RPN3] as the sequence, how does the protein stability index read?
A: The protein stability index was 1.24 ± 0.051.

Q: For YNNNTIRKLLEKINRMI [CSI1], which protein stability index is on record?
A: The protein stability index was 2.79 ± 0.17.

Q: With YNNRKCWPKDSRMRLIR [PRP8] as the sequence, how does the protein stability index read?
A: The protein stability index was 2.13 ± 0.12.

Q: With YNRHKLQELIVNGPNVH [RPO31] as the sequence, how does the protein stability index read?
A: The protein stability index was 1.48 ± 0.1.

Q: With YNRYRDLMISCLMNQET [MTR3] as the sequence, how does the protein stability index read?
A: Its protein stability index is 2.56 ± 0.063.

Q: For YPVYTRLRTLCRDSDDH [DIS3], which protein stability index is on record?
A: Its protein stability index is 2.77 ± 0.13.

Q: For YQLNGVAPFMIKYEFNG [YMR129W/POM152], which protein stability index is on record?
A: The protein stability index was 2.64 ± 0.075.

Q: With YQSPTIFKIVQSRLMST [MED6] as the sequence, how does the protein stability index read?
A: The protein stability index was 1.59 ± 0.13.

Q: Which protein stability index does the source give for YQSSVQEPFLNSSNYAE [PRP8] here?
A: The protein stability index was 2.96 ± 0.052.

Q: For YRNNEPAGFTHKLSNWL [YDL088C/ASM4], which protein stability index is on record?
A: The protein stability index was 3.04 ± 0.058.

Q: For YSDENDPSISNNIRQAI [RRP4], which protein stability index is on record?
A: Its protein stability index is 2.75 ± 0.066.

Q: With YSENGKHDSLRYRLLSD [RPN1] as the sequence, how does the protein stability index read?
A: The protein stability index was 2.49 ± 0.075.

Q: With YSIEMKPYSGKLLKVCL [ECM29] as the sequence, how does the protein stability index read?
A: The protein stability index was 2.33 ± 0.098.

Q: Which protein stability index does the source give for YSLEAIKLGSTAIGIAT [PUP2] here?
A: The protein stability index was 1.79 ± 0.08.

Q: For YTDELEEDVYLDPLARV [FAS2], which protein stability index is on record?
A: The protein stability index was 3.32 ± 0.1.

Q: For YTYHSTNKDNKAELIKP [ARP9], which protein stability index is on record?
A: The protein stability index was 2.69 ± 0.053.

Q: Which protein stability index does the source give for YTYSSTLSHLRRTNTPI [RPB2] here?
A: The protein stability index was 2.13 ± 0.04.

Q: With YVAPTKKEYIELDILNK [SRB4] as the sequence, how does the protein stability index read?
A: Its protein stability index is 3.25 ± 0.22.

Q: For YVEAQHKLVFVVRIKGI [RPL7A], which protein stability index is on record?
A: The protein stability index was 1.19 ± 0.054.

Q: Which protein stability index does the source give for YVLSTAVEFESVPLRKG [BRR2] here?
A: Its protein stability index is 1.45 ± 0.04.

Q: Which protein stability index does the source give for YVSDSDDSSSDNDSLTD [SIR4] here?
A: The protein stability index was 2.94 ± 0.038.
